Source: PMC9984488

How the values were obtained:
[1] = target: 14-3-3τ (UniProt P27348); test: GST pull-down from co-transfected cells; settings: reference: GST-HIP-55 wild type; sites S269,T291
[2] = target: MAP4K1 (UniProt Q92918); test: GST pull-down from transfected cells; settings: reference: HIP-55 wild type; sites S269,T291

binding against the reference [1]	binding against the reference [2]	Substance
lost		HIP-55 (from UniProt Q9UJU6) GST-HIP-55 S269A/T291A (HIP-55AA)
	weaker	HIP-55 (from UniProt Q9UJU6) HIP-55 S269A/T291A (HIP-55AA)
